Entries after “also recorded” stand apart in the source; their conditions may differ. Where two headings read alike, the source gives them in different places.
T1: GCase ProSNA constructs (Homo sapiens, UniProt P04062)
T1 sequence (P04062 40-536): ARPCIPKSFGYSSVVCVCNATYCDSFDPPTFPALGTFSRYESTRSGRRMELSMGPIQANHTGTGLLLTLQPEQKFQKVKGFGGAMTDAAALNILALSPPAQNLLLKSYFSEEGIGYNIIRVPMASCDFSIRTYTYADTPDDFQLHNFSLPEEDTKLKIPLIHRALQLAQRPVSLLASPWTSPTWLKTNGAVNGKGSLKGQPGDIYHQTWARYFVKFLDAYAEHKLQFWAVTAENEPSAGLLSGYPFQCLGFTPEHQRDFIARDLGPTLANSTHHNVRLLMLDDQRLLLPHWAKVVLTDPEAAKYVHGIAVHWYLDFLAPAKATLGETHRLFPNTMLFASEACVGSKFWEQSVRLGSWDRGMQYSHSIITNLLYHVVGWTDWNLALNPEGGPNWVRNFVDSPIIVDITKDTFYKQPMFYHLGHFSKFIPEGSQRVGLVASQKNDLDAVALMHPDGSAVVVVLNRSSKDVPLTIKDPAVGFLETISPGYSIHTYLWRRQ

T2: GCase (Homo sapiens, UniProt P04062)
T2 construct: purchased GenScript; host or cells: CHO expression system
T2 sequence (P04062 40-536): T1 sequence (P04062 40-536)

B1: Bivalent ProSNA: GCase protein functionalized with the bivalent ligand (folate modified transferrin aptamer), roughly 14-18 ligands per protein (conjugate, UniProt P04062 40-536, looked up)
Lysosomal acid …: T1 sequence (P04062 40-536)
modifications: folate-modified transferrin aptamer shell, 14-18 ligands
notes: GCase protein functionalized with the bivalent ligand (folate modified transferrin aptamer), roughly 14-18 ligands per protein
B2: PEGylated protein: GCase after PEGylation, comparator in the activity assay (conjugate, UniProt P04062 40-536, looked up)
Lysosomal acid …: T1 sequence (P04062 40-536)
modifications: PEGylated
B3: Univalent ProSNA: GCase protein functionalized with only the transferrin aptamer (conjugate, UniProt P04062 40-536, looked up)
Lysosomal acid …: T1 sequence (P04062 40-536)
modifications: transferrin aptamer DNA shell

Experiments:
[1] = biological target: T1, GCase ProSNA constructs; details: co-incubation / co-assembly of activator with GCase ProSNA construct
Description: Next, the assay is repeated with generated GCase ProSNA constructs to investigate whether some of the activity lost during activation can be recovered.

[2] = tested on: α-synuclein protein aggregates; details: cited from earlier work
[3] = biological target: native GCase protein (Homo sapiens, UniProt P04062); details: GCase 1.9 mg/mL, quetiapine introduced 30 minutes prior to substrate, FIG. 10
Description: The purpose behind enzyme replacement therapy (ERT) is to replace protein that is either absent or dysregulated. […] This assay was completed using the same fluorometric kit described above, with quetiapine being introduced 30 minutes prior to the GCase substrate.

[4] = tested on: Human endothelial cells cultured alone or with microglial and astrocyte cells on a transwell membrane
Description: The ability of the construct to pass the BBB is also assessed. […] To investigate this an in vitro transwell model of transcytosis is used. Human endothelial cells are cultured alone or in concert with microglial and astrocyte cells on a transwell membrane. Once confluent, the constructs are added to the apical side of the insert and their transcytosis through the cell monolayer to the basolateral side of the insert is quantified by fluorescence.

[5] = tested on: neurons (dopaminergic), astrocytes, and microglia; experiment: flow cytometry uptake into neuronal cell types; type: cell-based
Description: The ability of the GCase ProSNA constructs to be taken up into cells will be assessed. To investigate their uptake potential, flow cytometry is used as a method for determining the percent uptake of the constructs compared to control groups (unmodified GCase protein, linear bivalent DNA ligand, GCase-Transferrin aptamer, and GCase-Folic Acid). Constructs are synthesized as described previously, including the fluorescent tagging the GCase protein core as well as including a Cyanine3 dye into the aptamer sequence (Folate-SEQ ID NO: 1-Cy3-DBCO dT). Once prepared, the constructs are used to treat different mono-populations of different neuronal cell types, including neurons (dopaminergic), astrocytes, and microglia, to evaluate their uptake ability. In all cases, a live dead stain is used to determine percent uptake in viable populations. Furthermore, uptake across different time points is assessed to determine the rates at which the constructs are endocytosed and processed by the different cell types.

[6] = mouse, in vivo
Description: Fluorescently labeled constructs are administered to mice by different routes of injection including intravenously by way of retroorbital or tail vein injection, as well as intrathecally. At set time points the mice are imaged using IVIS to track the biodistribution patterns.

[7] = biological target: T2, GCase; experiment: fluorometric GCase activity assay kit (Abcam) on GCase constructs; type: biochemical; details: constructs at 0.24 mg/mL, GCase substrate 30 minutes at 37° C., FIG. 9; for protein activity after functionalization, compared with unmodified GCase: fluorescence Ex/Em=360/445
Description: Upon interaction with active GCase, this substrate releases a fluorophore detectable using a plate reader at Ex/Em=360/445 nm.
Following the synthesis process, a comprehensive investigation into the impact of synthesis on protein activity was conducted. To assess this, we employed a fluorometric GCase activity assay kit (Abcam), using a synthetic substrate-4-Methylumbelliferyl β-D-glucopyranoside. Upon interaction with active GCase, this substrate releases a fluorophore detectable using a plate reader at Ex/Em=360/445 nm. The focus extended to evaluating the effects of PEGylation on GCase, along with modifications involving univalent (sole presence of the transferrin aptamer) or bivalent (co-presence of both transferrin and folate) DNA ligands. By using the protocol outlined in this assay, the aim was to understand and analyze the variations in protein activity resulting from these modifications. Briefly, GCase constructs (all at 0.24 mg/mL) were reacted with GCase substrate for 30 minutes at 37° C. They were then measured for fluorescence intensity at Ex/Em=360/445. […] This was a key finding as PEGylation is currently one of the most used methods to improve protein delivery.

protein activity, PEGylated protein versus ProSNA constructs [7] | Molecule | GCase activity of ProSNA constructs with small molecule activator [1] | protein activity after functionalization, compared with unmodified GCase [7] | protein activity, univalent versus bivalent constructs [7] | other results
– | Nc1c(Br)cc(Br)cc1CN[C@H]1CC[C@H](O)CC1 [Ambroxol] | elevation in enzyme activity; also recorded: partial recovery of GCase activity | – | – | –
– | OCCOCCN1CCN(C2=Nc3ccccc3Sc3ccccc32)CC1 [quetiapine] | elevation in enzyme activity; also recorded: partial recovery of GCase activity | – | – | presence of α-synuclein protein aggregates [2]: reduce the presence of α-synuclein protein aggregates; activity of the native GCase protein ([3]; 5 μM quetiapine): sufficient to increase the activity of the native protein; activity of the native GCase protein ([3]; 10 μM quetiapine): sufficient to increase the activity of the native protein
significant increase in activity | B1 | – | functionalization does impact protein activity; also recorded: reduction of overall activity | no significant difference between the univalent and bivalent variations; also recorded: no significant difference between the uni- and bivalent constructs | rate of transcytosis across the blood-brain barrier [4]: significant increase in the rate of transcytosis across the blood-brain barrier was observed; rate of transcytosis compared to control groups [4]: higher rate of transcytosis when compared to control groups; rates of uptake across time points ([5]; different time points): highest at shorter time points; uptake into cells compared to control groups ([5]; neurons (dopaminergic), astrocytes, microglia, flow cytometry): enhance its uptake into all cell types; biodistribution (localization to the brain space) [6]: localize to the brain space in higher concentrations when compared to control groups
significant increase in activity | B3 | – | functionalization does impact protein activity | no significant difference between the univalent and bivalent variations; also recorded: no significant difference between the uni- and bivalent constructs | –

Molecule | protein activity, PEGylated protein versus ProSNA constructs [7] | GCase activity of ProSNA constructs with small molecule activator [1] | protein activity after functionalization, compared with unmodified GCase [7] | protein activity, univalent versus bivalent constructs [7] | other results
B2 | significant increase in activity when comparing the PEGylated protein to both ProSNA constructs | – | – | – | –
